From patent publication US20220380459A1 (DRAGONFLY THERAPEUTICS, published 2022)
Read-outs that look alike come from different tables or passages of the source. Each block holds one binder with its values, some of them ahead of it.

Legend:
[1] = biological target: T1, human CD33 extracellular domain (human, UniProt P20138 18-259); test: SPR, Fab captured, 37C;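 as to result: surface plasmon resonance with Fabs captured on anti-Fab surface, soluble monomeric CD33 as analyte at several concentrations, double-referenced 1:1 model fit, KD as koff/kon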
T1 construct: soluble monomeric ECD; also called human CD33 ECD; hCD33
Description: (§1) Kinetics and affinity of a series of Fab fragments of anti-CD33 antibodies with different CD33 variants (human CD33 ECD, cyno CD33 ECD, V-domain of human CD33, C-domain or human CD33 and selected CD33 SNPs) were assessed by surface plasmon resonance using Biacore 8K instrument (GE Healthcare). Anti-Fab antibody was immobilized on a CMS chip using standard amine coupling chemistry. CD33 FABs were captured on the anti-Fab chip at a density of ˜100 RU. Solutions containing different concentrations of soluble monomeric CD33 or its domains were injected over the captured FABs and control surfaces at 30 μl/min at 37° C. Surfaces were regenerated between cycles by quick injection of 10 mM glycine, pH 1.8. To obtain kinetic rate constants double-referenced data were fit to a 1:1 interaction model using Biacore 8K Evaluation software (GE Healthcare). The equilibrium binding constant KD was determined by the ratio of binding rate constants kd/kₐ.
(§2) Affinity of 29 Fab fragments binding to human and cyno CD33 ECD were assayed by Biacore analysis.

[2] = biological target: T1, human CD33 extracellular domain; test: SPR, Fab captured, 37C; remark: listed apart in the source;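 as to result: surface plasmon resonance with Fabs captured on anti-Fab surface, soluble monomeric CD33 as analyte at several concentrations, double-referenced 1:1 model fit, KD as koff/kon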
[3] = biological target: T2, cyno CD33 extracellular domain (Cynomolgus/Rhesus (cyno)); test: SPR, Fab captured, 37C;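 also: surface plasmon resonance with Fabs captured on anti-Fab surface, soluble monomeric CD33 as analyte at several concentrations, double-referenced 1:1 model fit, KD as koff/kon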
T2 construct: soluble monomeric ECD; also called cyno CD33 ECD

[4] = biological target: T1, human CD33 extracellular domain; test: SPR, Fab captured, 37C; remark: listed apart in the source;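 as to result: surface plasmon resonance with Fabs captured on anti-Fab surface, soluble monomeric CD33 as analyte at several concentrations, double-referenced 1:1 model fit, KD as koff/kon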
Description: as §1, §2

V domain of human CD33 [5] = biological target: T3, V domain of human CD33 (human, UniProt P20138 18-139, limits assumed); test: SPR, Fab captured, 37C
T3 construct: recombinant, fully glycosylated V domain; also called Human CD33 V domain
Description: as §1
(§3) The ability of anti-CD33 antibodies to recognize glycosylated CD33 was assayed. […] De-glycosylation status was confirmed by a shift on SDS-PAGE and MS.

[6] = biological target: T4, deglycosylated V domain of human CD33 (human, UniProt P20138 18-139, limits assumed, N-glycans removed by PNGase); test: SPR, Fab captured, 37C
T4 construct: V domain deglycosylated by PNGase before testing; also called deglycosylated V CD33
Description: as §1, §3

V domain of human CD33 [7] = biological target: T3, V domain of human CD33; test: SPR, Fab captured, 37C; remark: listed apart in the source
Description: as §1

[8] = biological target: T1, human CD33 extracellular domain; test: SPR, Fab captured, 37C; remark: listed apart in the source
Description: as §1

C domain of human CD33 = biological target: T5, C domain of human CD33 (human, UniProt P20138 140-259, limits assumed); test: SPR, Fab captured, 37C
T5 construct: recombinant C domain
Description: as §1
The binding interface between the Fab fragment of each CD33 antibody to CD33 was mapped.

[9] = biological target: T6, human CD33 expressed on cells (human, UniProt P20138 18-364); test: flow cytometry on Molm-13 cells, fluorophore-conjugated anti-human IgG secondary antibody, MFI as fold over background (FOB)
T6 construct: endogenous CD33 of human AML cell lines and blood monocytes; also called cell-expressed CD33 (Molm-13, Mv4-11, monocytes)
Description: Binding of the TriNKET was detected using a fluorophore conjugated anti-human IgG secondary antibody. Cells were analyzed by flow cytometry, binding MFI to cell expressed CD33 was normalized to secondary antibody controls to obtain fold over background values.

- binding result [9]: binds
B5: A49.G59 (bispecific antibody)
NKG2D-binding VH: EVQLVESGGGLVKPGGSLRLSCAASGFTFSSYSMNWVRQAPGKGLEWVSSISSSSSYIYYADSVKGRFTISRDNAKNSLYLQMNSLRAEDTAVYYCARGAPMGAAAGWFDPWGQGTLVTVSS
NKG2D-binding VL: DIQMTQSPSSVSASVGDRVTITCRASQGISSWLAWYQQKPGKAPKLLIYAASSLQSGVPSRFSGSGSGTDFTLTISSLQPEDFATYYCQQGVSFPRTFGGGTKVEIK
CD33-binding VH: EVQLVESGGGLVQPGGSLRLSCAASGFTFSSYGMSWVRQAPGKGLEWVANIKQDGSEKYYVDSVKGRFTISRDNAKNSLYLQMNSLRAEDTAVYYCAREGGPYYDSSGYFVYYGMDVWGQGTTVTVSS
CD33-binding VL: DIQMTQSPSTLSASVGDRVTITCRASQSISSWLAWYQQKPGKAPKLLIYDASSLESGVPSRFSGSGSGTEFTLTISSLQPDDFATYYCQQYESFPTFGGGTKVEIK

- binding result [9]: binds
B6: A44.I07 (bispecific antibody)
NKG2D-binding VH: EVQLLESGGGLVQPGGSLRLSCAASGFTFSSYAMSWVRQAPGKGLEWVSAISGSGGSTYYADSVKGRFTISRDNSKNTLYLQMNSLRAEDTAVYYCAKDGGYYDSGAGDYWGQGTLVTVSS
NKG2D-binding VL: DIQMTQSPSSVSASVGDRVTITCRASQGIDSWLAWYQQKPGKAPKLLIYAASSLQSGVPSRFSGSGSGTDFTLTISSLQPEDFATYYCQQGVSYPRTFGGGTKVEIK
CD33-binding VH: EVQLVESGGGLVQPGGSLRLSCAASGFTFGSYWMSWVRQAPGKGLEWVATIKQDGSEKSYVDSVKGRFTISRDNAKNSLYLQMNSLRAEDTAVYYCARPLNAGELDVWGQGTMVTVSS
CD33-binding VL: DIQMTQSPSTLSASVGDRVTITCRASQSISSWLAWYQQKPGKAPKLLIYEASSLESGVPSRFSGSGSGTEFTLTISSLQPDDFATYYCQQSQSYPPITFGGGTKVEIK

- binding result [9]: binds
B7: A44.H76 (bispecific antibody)
NKG2D-binding VH: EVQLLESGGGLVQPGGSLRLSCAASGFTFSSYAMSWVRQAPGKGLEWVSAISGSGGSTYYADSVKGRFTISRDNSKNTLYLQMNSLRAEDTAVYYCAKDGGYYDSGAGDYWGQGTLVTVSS
NKG2D-binding VL: DIQMTQSPSSVSASVGDRVTITCRASQGIDSWLAWYQQKPGKAPKLLIYAASSLQSGVPSRFSGSGSGTDFTLTISSLQPEDFATYYCQQGVSYPRTFGGGTKVEIK
CD33-binding VH: EVQLLESGGGLVQPGGSLRLSCAASGFTFSKYTMSWVRQAPGKGLEWVSAIVGSGESTYFADSVKGRFTISRDNSKNTLYLQMNSLRAEDTAVYYCAREGGPYYDSSGYFVYYGMDVWGQGTTVTVSS
CD33-binding VL: DIQMTQSPSTLSASVGDRVTITCRASQSISSWLAWYQQKPGKAPKLLIYKASSLESGVPSRFSGSGSGTEFTLTISSLQPDDFATYYCQQYDDLPTFGGGTKVEIK

- binding result [9]: binds
B9: A44.G59 (bispecific antibody)
NKG2D-binding VH: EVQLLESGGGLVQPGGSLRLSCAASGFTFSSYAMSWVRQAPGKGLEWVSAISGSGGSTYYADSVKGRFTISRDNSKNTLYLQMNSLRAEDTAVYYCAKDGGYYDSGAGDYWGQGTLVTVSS
NKG2D-binding VL: DIQMTQSPSSVSASVGDRVTITCRASQGIDSWLAWYQQKPGKAPKLLIYAASSLQSGVPSRFSGSGSGTDFTLTISSLQPEDFATYYCQQGVSYPRTFGGGTKVEIK
CD33-binding VH: EVQLVESGGGLVQPGGSLRLSCAASGFTFSSYGMSWVRQAPGKGLEWVANIKQDGSEKYYVDSVKGRFTISRDNAKNSLYLQMNSLRAEDTAVYYCAREGGPYYDSSGYFVYYGMDVWGQGTTVTVSS
CD33-binding VL: DIQMTQSPSTLSASVGDRVTITCRASQSISSWLAWYQQKPGKAPKLLIYDASSLESGVPSRFSGSGSGTEFTLTISSLQPDDFATYYCQQYESFPTFGGGTKVEIK

- binding result [9]: binds
B10: F47.I07 (bispecific antibody)
NKG2D-binding VH: QVQLQQWGAGLLKPSETLSLTCAVYGGSFSGYYWSWIRQPPGKGLEWIGEIDHSGSTNYNPSLKSRVTISVDTSKNQFSLKLSSVTAADTAVYYCARARGPWSFDPWGQGTLVTVSS
NKG2D-binding VL: DIQMTQSPSTLSASVGDRVTITCRASQSISSWLAWYQQKPGKAPKLLIYKASSLESGVPSRFSGSGSGTEFTLTISSLQPDDFATYYCQQYDTFITFGGGTKVEIK
CD33-binding VH: EVQLVESGGGLVQPGGSLRLSCAASGFTFGSYWMSWVRQAPGKGLEWVATIKQDGSEKSYVDSVKGRFTISRDNAKNSLYLQMNSLRAEDTAVYYCARPLNAGELDVWGQGTMVTVSS
CD33-binding VL: DIQMTQSPSTLSASVGDRVTITCRASQSISSWLAWYQQKPGKAPKLLIYEASSLESGVPSRFSGSGSGTEFTLTISSLQPDDFATYYCQQSQSYPPITFGGGTKVEIK

- binding result [9]: binds
B11: F47.I35 (bispecific antibody)
NKG2D-binding VH: QVQLQQWGAGLLKPSETLSLTCAVYGGSFSGYYWSWIRQPPGKGLEWIGEIDHSGSTNYNPSLKSRVTISVDTSKNQFSLKLSSVTAADTAVYYCARARGPWSFDPWGQGTLVTVSS
NKG2D-binding VL: DIQMTQSPSTLSASVGDRVTITCRASQSISSWLAWYQQKPGKAPKLLIYKASSLESGVPSRFSGSGSGTEFTLTISSLQPDDFATYYCQQYDTFITFGGGTKVEIK
CD33-binding VH: QLQLQESGPGLVKPSETLSLTCTVSGGSISSTDYYWGWIRQPPGKGLEWIGSIGYSGTYYNPSLKSRVTISVDTSKNQFSLKLSSVTAADTAVYYCARETAHDVHGMDVWGQGTTVTVSS
CD33-binding VL: EIVLTQSPATLSLSPGERATLSCRASHSVYSYLAWYQQKPGQAPRLLIYDASNRATGIPARFSGSGSGTDFTLTISSLEPEDFAVYYCQQYDNLPTFGGGTKVEIK

More lines, now with the values behind:

B1: ADI-11828 Fab (Fab, V domains shown)
VH: EVQLVESGGGLVQPGGSLRLSCAASGFTFSSYWMSWVRQAPGKGLEWVANINQDGSEVYYVDSVKGRFTISRDNAKNSLYLQMNSLRAEDTAVYYCARDVGPGIAYQGHFDYWGQGTLVTVSS
VL: DIQMTQSPSSLSASVGDRVTITCRASQSIYYYLNWYQQKPGKAPKLLIYAASSRQSGVPSRFSGSGSGTDFTLTISSLQPEDFATYYCQQVYDTPLTFGGGTKVEIK
notes: Fab fragment; also called Ab27
- Kd [1]: 2.67 nM
- koff [1]: 0.00351 s⁻¹
- kon [1]: 1.32e+06 M⁻¹ s⁻¹
- Kd [2]: 2.67 nM
- koff [2]: 0.00351 s⁻¹
- kon [2]: 1.32e+06 M⁻¹ s⁻¹
- Kd [3]: 53.5 nM
- koff [3]: 0.0548 s⁻¹
- kon [3]: 1.03e+06 M⁻¹ s⁻¹
- Kd [4]: 2.67 nM
- koff [4]: 0.00351 s⁻¹
- Kd (V domain of human CD33 [5]): 6.3 nM
- koff (V domain of human CD33 [5]): 0.0213 s⁻¹
- kon (V domain of human CD33 [5]): 3.37e+06 M⁻¹ s⁻¹
- Kd [6]: 4.87 nM
- koff [6]: 0.0189 s⁻¹
- kon [6]: 3.59e+06 M⁻¹ s⁻¹
- Kd (V domain of human CD33 [7]): 6.3 nM
- koff (V domain of human CD33 [7]): 0.0213 s⁻¹
- kon (V domain of human CD33 [7]): 3.37e+06 M⁻¹ s⁻¹
- Kd [8]: 2.67 nM
- koff [8]: 0.00351 s⁻¹
- kon [8]: 1.32e+06 M⁻¹ s⁻¹
- binding result (C domain of human CD33): no binding

B2: A44.I35 (bispecific antibody)
NKG2D-binding VH: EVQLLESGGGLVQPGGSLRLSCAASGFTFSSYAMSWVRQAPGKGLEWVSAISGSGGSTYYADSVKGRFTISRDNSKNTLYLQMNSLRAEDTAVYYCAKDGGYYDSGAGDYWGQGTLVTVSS
NKG2D-binding VL: DIQMTQSPSSVSASVGDRVTITCRASQGIDSWLAWYQQKPGKAPKLLIYAASSLQSGVPSRFSGSGSGTDFTLTISSLQPEDFATYYCQQGVSYPRTFGGGTKVEIK
CD33-binding VH: QLQLQESGPGLVKPSETLSLTCTVSGGSISSTDYYWGWIRQPPGKGLEWIGSIGYSGTYYNPSLKSRVTISVDTSKNQFSLKLSSVTAADTAVYYCARETAHDVHGMDVWGQGTTVTVSS
CD33-binding VL: EIVLTQSPATLSLSPGERATLSCRASHSVYSYLAWYQQKPGQAPRLLIYDASNRATGIPARFSGSGSGTDFTLTISSLEPEDFAVYYCQQYDNLPTFGGGTKVEIK
- binding result [9]: binds

B3: ADI-11839 Fab (Fab, V domains shown)
VH: QVQLVQSGAEVKKPGASVKVSCKASGYTFSNYYMHWVRQAPGQGLEWMGWINPFSGGTRYAQKFQGRVTMTRDTSTSTVYMELSSLRSEDTAVYYCARDVGSSAYYYMDVWGKGTTVTVSS
VL: DIQMTQSPSSVSASVGDRVTITCEASKGISSWLAWYQQKPGKAPKLLIYAASDLQSGVPSRFSGSGSGTDFTLTISSLQPEDFATYYCQQAFLFPPTFGGGTKVEIK
notes: Fab fragment; also called Ab28
- Kd [1]: 18.6 nM
- koff [1]: 0.0162 s⁻¹
- kon [1]: 874000 M⁻¹ s⁻¹
- Kd [2]: 18.6 nM
- koff [2]: 0.0162 s⁻¹
- kon [2]: 874000 M⁻¹ s⁻¹
- binding result [3]: no binding (tested: 100 nM)
- Kd [4]: 18.6 nM
- koff [4]: 0.0162 s⁻¹
- Kd (V domain of human CD33 [5]): 44.6 nM
- koff (V domain of human CD33 [5]): 0.41 s⁻¹
- kon (V domain of human CD33 [5]): 9.19e+06 M⁻¹ s⁻¹
- Kd [6]: 70.3 nM
- koff [6]: 0.116 s⁻¹
- kon [6]: 1.65e+06 M⁻¹ s⁻¹
- Kd (V domain of human CD33 [7]): 44.6 nM
- koff (V domain of human CD33 [7]): 0.41 s⁻¹
- kon (V domain of human CD33 [7]): 9.19e+06 M⁻¹ s⁻¹
- Kd [8]: 18.6 nM
- koff [8]: 0.0162 s⁻¹
- kon [8]: 874000 M⁻¹ s⁻¹
- binding result (C domain of human CD33): no binding

B4: A40.I07 (bispecific antibody)
NKG2D-binding VH: QVQLQQWGAGLLKPSETLSLTCAVYGGSFSGYYWSWIRQPPGKGLEWIGEIDHSGSTNYNPSLKSRVTISVDTSKNQFSLKLSSVTAADTAVYYCARARGPWSFDPWGQGTLVTVSS
NKG2D-binding VL: DIQMTQSPSTLSASVGDRVTITCRASQSIGSWLAWYQQKPGKAPKLLIYKASSLESGVPSRFSGSGSGTEFTLTISSLQPDDFATYYCQQYHSFYTFGGGTKVEIK
CD33-binding VH: EVQLVESGGGLVQPGGSLRLSCAASGFTFGSYWMSWVRQAPGKGLEWVATIKQDGSEKSYVDSVKGRFTISRDNAKNSLYLQMNSLRAEDTAVYYCARPLNAGELDVWGQGTMVTVSS
CD33-binding VL: DIQMTQSPSTLSASVGDRVTITCRASQSISSWLAWYQQKPGKAPKLLIYEASSLESGVPSRFSGSGSGTEFTLTISSLQPDDFATYYCQQSQSYPPITFGGGTKVEIK
- binding result [9]: binds

B8: A40.I35 (bispecific antibody)
NKG2D-binding VH: QVQLQQWGAGLLKPSETLSLTCAVYGGSFSGYYWSWIRQPPGKGLEWIGEIDHSGSTNYNPSLKSRVTISVDTSKNQFSLKLSSVTAADTAVYYCARARGPWSFDPWGQGTLVTVSS
NKG2D-binding VL: DIQMTQSPSTLSASVGDRVTITCRASQSIGSWLAWYQQKPGKAPKLLIYKASSLESGVPSRFSGSGSGTEFTLTISSLQPDDFATYYCQQYHSFYTFGGGTKVEIK
CD33-binding VH: QLQLQESGPGLVKPSETLSLTCTVSGGSISSTDYYWGWIRQPPGKGLEWIGSIGYSGTYYNPSLKSRVTISVDTSKNQFSLKLSSVTAADTAVYYCARETAHDVHGMDVWGQGTTVTVSS
CD33-binding VL: EIVLTQSPATLSLSPGERATLSCRASHSVYSYLAWYQQKPGQAPRLLIYDASNRATGIPARFSGSGSGTDFTLTISSLEPEDFAVYYCQQYDNLPTFGGGTKVEIK
- binding result [9]: binds
